B1: TPR t1 (parent)
chain: GACCAAUCUGCCCUCAGAGCUCGAGAACAUCUUCGGAUGCAGAGGAGGCAGGCUUCGGUGGCGCGAUAGCGCCAACGUCCUCAACCUCCAAUGCAUCCCACCACAUGAUGAUGCCUGAAGAGCCUUGGUUUUUUG

Variants of: B1
Test: polymerase ribozyme fitness, log enrichment relative to wild type (log ratio); higher = more active; in vitro selection for triplet polymerase activity
Summary of the method: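 Both subunits of a heterodimeric triplet polymerase ribozyme were given their own mutant library, built by PCR and transcribed. Each library was annealed with a biotinylated primer, the partner subunit and triplets, incubated frozen at −7 °C, and its extended constructs gel-excised, captured on streptavidin beads and amplified by RT-PCR, all in one round done in triplicate. Fitness is the logarithm of genotype enrichment relative to wild-type enrichment, with replicates averaged by inverse-variance weighting. That logarithm is base 2, and Illumina-sequenced genotypes needed ≥10 input reads and ≥1 read per output.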

Variant | polymerase ribozyme fitness (log ratio)
U7C C12A C15A C20G G69U C80U C104A C114A G127C | -6.96
U33C A121C | -2.95
G45A G52U C79U A95C A121C | -0.812
C49U C114G | -3.71
A2U G127C | -2.05
U7A G39C A74G G107U G120U U130C | -4.02
C11U A27U C62U C88G C97G C98U C99U C114G C124A G128A | -7.25
G10A A83C G128U | -2.33
C8U C15G A37U | -1.75
G45A C62U U96G | -1.28
C8U C20G A111C C123A | -5.26
A41G G48A C80U A95G C124A | 0.0211
C11G C70A G127C | -2.16
C73U A100C | -1.34
C89U A121U | 2.14
A5C G69A | -3.11
C12U U14C C15G A41C U112A | -2.25
A29U G44A C72U G110A U125A | -5.47
G47A G60C | -1.05
U7G C13A A37C G52A G69U U92A A105U | -4.57
A27U C123A | -1.74
A37G G61U | -1.33
A6U C79A G110A | -2.78
A37U A50C C124G | 1.16

Variant | polymerase ribozyme fitness (log ratio)
C8U G93C G120A | 1.29
G35U C101A | -4.48
A6G A43G G69U | -0.0956
C12A G45U C56U U78A | -1.36
A16G G93A | -2.61
G10U G63U C79U U132A | -0.795
C4A C56G A84G C89U C115A | -4.85
C12G U14C C85U C86U | -1.22
C13U A27C | -2.05
C12U U38C G71U C101G | -2.11
G61U G120U | 1.51
U9G C28U G117C U131G | -4.94
A2C C13U C86U G110U G120C | -4.02
C12A A121G | 1.96
A18U C49G C88A C101A C123U U126A | -4.99
C49A G60U | 0.254
C70U A121U | 0.918
A6C G35U G39A G61U A74C C86U C101A C115U | -6.88
A5G G48C | -1.69
G44A G60A A121C G122U | -1.92
G52U C56U A84U | -1.37
A5C C86U | -0.23
C70U U78C C101A | -1.6
C56A G69U C79U A100U A103C | -3.37

Variant | polymerase ribozyme fitness (log ratio)
A111C A119U U125A | -4.12
A41U G42C G60U | -2.24
G44A G63A A111C G122A | -5
U78G C89U U125G | -0.754
C53A C94A U112C | 1.14
G60A G71A A90U C94A G110C | -6.47
A27U G61C C97U U131A | -4.99
G60A C70U | -1.22
A5C A41U | -2.41
C11U C20A A37U G61A A83C C97A C98U U112C | -7.47
A18G C56G G58C C114A | -3.34
G10A C15G C82A G93A | -4.03
G47C G61C | -3.43
C56G C72G | -2.27
U92G G120A A121C | -2.53
C12A C31U G35A C104G C115U | -6.08
C12U G69U | 1.01
C8G C62U C115U | -0.929
A37U C49G G77U G120C | 0.00604
C62A U131C | -0.63
G25U A29G G45A C80U G110U | -6.86
C3G A6U | -4.02
C8G G60U | 0.698
G60A C73G G110A U112C | -2.14

Variant | polymerase ribozyme fitness (log ratio)
A18U G44C U92A A119U C123A | -5.44
A29C A121U | 0.0449
C8A C22U G61A U129G | -4.98
C86U G117C | -3.53
A43C G69A C94G | -7.62
C3U C4G | -2.81
C22G G63U U92G G110A | -5.8
U59A C62U C82U G120A | 0.193
G19A G44U | -3.1
A5U G42A | -1.63
A41C G61A G127A | -1.68
U96A G117A G120A U130C | -3.72
A68G U87G | -3.29
U87A G113C U130A | -2.96
A5U C11A G63A G93U | -2.91
U14G G42C A46C C53U | -4.19
A37U G69U A95C C101G G127A | -3.13
C11U C13A C22U U55G | -4.69
A24C C101G U112G | -6.34
C70U C72U | 0.27
G42U G58C U87C | -0.174
C115A U133A | 0.127
C79G | -1.54
G117U G120A U132A | -1.33

Variant | polymerase ribozyme fitness (log ratio)
C11U U132A | -0.17
U7A G45A G58A U59C | -2.17
A29G G45A A121C G128C | -2.4
U9A C13A | 0.483
U116G U129G | -4.36
C20G U109G | -3.38
U9A U30C G47U | -3.54
G36A C86U | -0.488
G10A G61A A111G | 0.12
G61C C79U | -1.46
C8U G93A | 0.108
C11U C40G C53U C62U C73G C79A C86U | -4.3
G10C U54C G93C C102A | -5.34
C73U A84G G117C | -4.85
G61A C123U | 1.29
C15U U21C G110A U130G | -4.32
C34A A41G A74U C88U C101U | -4.89
C56A G117C | -3.44
U21A G63U | -1.92
A2U C4G C22G U32C C70A A111U G128C | -4.89
A6U C11U C80U C102U | -3.5
A29U G39U G61A G122A | -3.23
C56A A105G A111C G113A | -5.31
C56G G110U A111G | -2.16

Variant | polymerase ribozyme fitness (log ratio)
C28U G39U G71C C99U G120A | -4.64
A18C C73G C114U | -3.9
U33C U133G | -5.56
C56A C62U | -0.164
C79A A91G | -2.3
G45A C62U U112G C115G | -2.08
C31A U54A C89A A121U | -7.04
A16U A83C G120U C123A G127C U131A | -1.95
C12U A24G G36A | -1.4
C40U U112C | 1.25
A24C A26G | -4.53
C56G C124G | 0.656
G10A G19U | -3.62
U7G C64U | 0.622
U54G C72U U129C | -0.965
G48A A103G G110U | -6.26
A29C G48A A50C | -3.87
C4A U14G C49A C73G C86U | -4.9
U9G C11A U87A | -0.55
C11G C64U G117C | -1.98
G17U G61A C88U C104A U133A | -4.19
G42C C53G | -1.2
C4U C114G | -2.65
U59A A91G A100U G113A | -3.07

Variant | polymerase ribozyme fitness (log ratio)
A27G G51A G61C | -4
C49G C85U G117C | -3.67
C53U A91C G120C U133C G135U | -0.968
A2U U116C | -1.84
A18C C20G G47U G48U | -4.66
G42C C76A U78A | -2.31
G10U C12G G17U G113A U126G | -4.16
G117A U133G | -0.981
C49A G63U C123A | -0.941
A2C C3U C56G G69U | -4.15
C114G U130G U133A | -2.19
U54A G71C C89U U129A | -2.49
G10A A41C G61U U92A U133C | -0.847
A16U C28U G71U | -3.34
C12G C40U U55A C82G | -0.877
G69U C101U U126C | -0.166
A27G A90U U116C | -6.7
G44U U92C | -1.82
C11U A43U G110U U132A | -3.03
A74C G113U U133A | -3.26
A2U C64U | -2
A2U G71A | -2.72
A29U G45C U55G C64U G93U U109A G117U | -5.42

From the RNAGym collection of RNA variant scans (doi:10.1073/pnas.2313332121)
